Measured values as given in patent US9328334B2, “Luciferase derived from lucidina accensa” (OLYMPUS CORPORATION, priority 2011, dated 2016).
Numbering of substitutions follows the chain as printed. Names may count otherwise. “Also recorded” adds a separate entry of the source.

B1: wild type luciferase: wild type luciferase obtained from Lucidina accensa, amino acid sequence SEQ ID NO: 1 (protein, listed as Lucidina accensa)
chain: MEEDKNILRGPAPFYPLEDGTAGEQLHRAMKRYALIPGTIAFTDAHAGVNITYSEYFEMACRLAESLKRYGLGLQHRIVVCSENSLQFFMPVVGALFIGVGVAPANDIYNERELLNSMTISQPTLVFCSRKGLQKILNVQKKLPVIQKIIILDTKEDYMGFQSMYSFVDSQLPVGFNEYDYVPDSFDRDQATALIMNSSGSTGLPKGVELNHTSVCVRFSHCRDPVYGNQIIPDTAILSVIPFHHGFGMFTTLGYLICGFRVVLMYRFEEELFLRSLQDYKIQSALLVPTLFSFFAKSTLIDKYDLSNLHEIASGGAPLAKEVGEAVAKRFNLRGIRQGYGLTETTSAVIITPEGDDKPGAVGKVVPFFSAKVVDLDTGKTLGVNQRGELCLKGPMIMKGYVNNPEATNALIDKDGWLHSGDISYWDEDGHFFIVDRLKSLIKYKGYQVPPAELESILLQHPFIFDAGVAGIPDDEAGELPAAVVVLEEGKTMTEKEIMDYVAGQVTTAKRLRGGVVFVDEVPKGLTGKIDARKIREILVKVKKTKSKL
B2: mutant luciferase (E322W): L. accensa luciferase mutant with E322W, amino acid sequence SEQ ID NO: 36 (protein, listed as Lucidina accensa)
chain: B1 chain with E322W

Tests used:
HeLa cells = test: Luminescence intensity of luciferase expressed in HeLa cells, comparison with L. biplagiata luciferase (Example 5); assay type: cell-based; details: 37° C.
Source text: The luminescence intensity from the light emitting reaction using the wild type luciferase derived from L. accensa (SEQ ID NO: 1) was compared to the luminescence intensity from the light emitting reaction using the luciferase derived from L. biplagiata having the literature sequence (SEQ ID NO: 30) or the luciferase derived from L. biplagiata having the cloned sequence (SEQ ID NO: 31). Further, based on the difference between the literature sequence and the cloned sequence, the amino acid residue at position 249 of the amino acid sequence of the wild type luciferase, i.e., methionine, was changed to lysine to prepare the mutant luciferase (M249K), which was then used for the intensity measurement.
With regard to the four types of the luciferase, a nucleic acid containing a gene optimized for mammalian cell expression was given with a Kozak sequence, and then inserted between SgfI and PmeI sites within the multicloning site of pF9A CMV hRLuc neo Flexi vector (manufactured by Promega). Further, since the pF9A vector contains the luciferase gene derived from Renilla reniformis as an internal control in the vector sequence, it is possible to obtain the luminescence intensity from the luminescent gene inserted to the multicloning site as a ratio compared to the luminescence intensity emitted by the Renilla luciferase.
Four types of luciferase plasmids obtained in such a manner described above were each subjected to gene transfection to HeLa cells inoculated in a 48-well plate by a lipofection method, and 24 hours later, the cells were washed with PBS. To each well of a 48-well plate, 500 μL of 2 mM D-luciferin/CO2 Independent Medium (manufactured by Invitrogen) was added and the luminescence intensity was measured for 90 min by using a Luminescensor (manufactured by ATTO Corporation) under the condition including 37° C. and 1 sec per each well. The luminescence intensity which is obtained at the time point of 90 min after starting the measurement was taken as the luminescence intensity of each luciferase. […] Subsequently, 500 μL of 10 μM coelenterazine/CO2 Independent Medium was added to each well and the luminescence intensity was measured for 30 min by using a Luminescensor under the condition including 37° C. and 1 sec per each well. The luminescence intensity obtained at five minutes after the addition of coelenterazine was taken as luminescence intensity of the Renilla luciferase, which is an internal control. Each of the luminescence intensities from the luciferases was divided by the luminescence intensity of the Renilla luciferase, yielding the luminescence intensity of each luciferase. The measurements were carried out multiple times for each luciferase, and the luminescence intensity was obtained as a mean value.

[1] = Measurement of light emission spectra of purified luciferase under various pH environments; assay type: biochemical; details: light emission spectra at various pH
Procedure: With use of LumiFlSpectroCapture (manufactured by ATTO Corporation) as an apparatus for measurement, to a solution of 0.1 M citric acid/0.1 M Na2HPO4 buffer (pH 5.5 to 8.0) containing 1 mM of D-luciferin, 2 mM of ATP and 4 mM of MgCl2 the purified enzyme was added at a final concentration of 1 μg/mL, and after 15 seconds of addition of the enzyme luminescence spectra was measured. The measurement results were illustrated in FIG. 1.
After that, each of thus-prepared genes (SEQ ID NOs: 38 and 39) was introduced into pRSET-B vector according to the same method as the Example 2. This vector was transformed to E. coli JM109 (DE3) strain to express the mutant luciferase. Subsequently, the mutant luciferase was purified from E. coli. In addition, under various pH environments, the light emission spectrum was measured according to the same method as the Example 2 from a light emitting reaction catalyzed by the mutant luciferase.

[2] = Measurement of Km value with respect to ATP; assay type: biochemical; details: 0.1 M Tris-HCl pH 8.0, D-luciferin and MgSO4 present
Procedure: Various 8 types of ATP solutions with different concentrations were prepared by adding ATP to 0.1 M Tris-HCl (pH 8.0). These solutions contain ATP at final concentration of 10, 20, 40, 80, 160, 320, 480, and 640 μM. These ATP solutions were aliquoted into a 96-well microplate at a volume of 50 μl each. 0.1 M Tris-HCl (pH 8.0) solution containing each purified luciferase, 1 mM of D-luciferin, and 8 mM of MgSO4 was connected to a standard pump of a luminometer, and the measurement was carried out at the same time as addition of 50 μL of the solution to wells. Measurement was repeated 3 times for each ATP concentration.
(§1) The peak intensities of the obtained photon count value were plotted with respect to ATP concentration S, with an initial rate V. The plots were subjected to curve fitting of Michaelis Menten type, thereby giving Km value. The curve fitting was performed by a nonlinear least-squares method, and the search of the parameter was performed by a Newton method.

[3] = Stability against degradation: SDS-polyacrylamide gel electrophoresis of lysate of E. coli expressing each luciferase (Example 4); details: lysate of E. coli BL21 (DE3) CodonPlus expressing the luciferase
Procedure: Stability against degradation was determined for the wild type luciferase derived from L. accensa in comparison with a known luciferase derived from L. biplagiata.
The above three genes were introduced into an expression vector and expressed in E. coli. The expression was carried out in the same manner as the Example 2 except that BL21 (DE3) CodonPlus (manufactured by Stratagene Corporation) was used as E. coli strain and the cells were cultured appropriately.
The lysate was prepared from the E. coli expressing each gene, and then subjected to SDS-polyacrylamide gel electrophoresis. It was confirmed that, as a band with the biggest size, a single band is present near 70 kDa for all three kinds of protein. […] Meanwhile, in the luciferase derived from L. biplagiata (i.e., left and right lanes), several bands with a size smaller than 70 kDa were identified.

HeLa cell = test: Luminescence intensity of luciferase expressed in HeLa cell, comparison with P. pyralis luciferase (Example 3); assay type: cell-based; details: 2 mM D-luciferin, 25° C., 90 min after starting measurement
Procedure: Each of the wild type luciferase derived from L. accensa, the mutant luciferase derived from L. accensa (N50D and 1530R), and the luciferase derived from P. pyralis (SEQ ID NO: 33) was expressed in a HeLa cell, and the luminescence intensity was measured and compared to each other.
Further, since the pF9A vector contains the luciferase gene derived from Renilla reniformis as an internal control, it is possible to obtain the luminescence intensity from the luminescent gene inserted to the multicloning site as a ratio compared to the luminescence intensity emitted by the Renilla luciferase.
Three types of plasmids obtained in such a manner described above were each subjected to gene transfection to a HeLa cell, which has been inoculated in a 24-well plate, by a lipofection method, and 24 hours later, the cells were washed with PBS. To each well of a 24-well plate, 500 μL of 2 mM D-luciferin/CO2 Independent Medium (manufactured by Invitrogen) was added and the luminescence intensity was measured for 90 min by using a Luminescensor (manufactured by ATTO Corporation) under the condition including 25° C. and 1 sec per each well. The luminescence intensity which is obtained at the time point of 90 min after starting the measurement was taken as the luminescence intensity of the wild type luciferase, the mutant luciferase, and P. pyralis luciferase. […] Subsequently, 500 μL of 10 μM coelenterazine/CO2 Independent Medium was added to each well and the luminescence intensity was measured for 30 min by using a Luminescensor under the condition including 25° C. and 1 sec per each well. The luminescence intensity obtained at five minutes after the addition of coelenterazine was taken as luminescence intensity of the Renilla luciferase, which is an internal control. Each of the luminescence intensity from the wild type luciferase, the mutant luciferase, and P. pyralis luciferase was divided by the luminescence intensity of the Renilla luciferase, and the results are illustrated as a graph illustrating the luminescence intensity of each luciferase.

[4] = Measurement of Km for D-luciferin; assay type: biochemical; details: 0.1 M Tris-HCl pH 8.0, ATP and MgSO4 present
Procedure: Eight types of D-luciferin solution of various concentrations were prepared by adding D-luciferin to 0.1 M Tris-HCl (pH 8.0). These solutions contain D-luciferin at final concentrations of 0.625, 1.25, 2.5, 5, 10, 20, 40, and 80 μM. These D-luciferin solutions were aliquoted into 96-well microplate at a volume of 50 μL each. A solution of 0.1 M Tris-HCl (pH 8.0) containing each of the purified luciferase, 4 mM of ATP, and 8 mM of MgSO4 was connected to the standard pump of the luminometer, and the measurements was carried out at the same time as addition of 50 μL of the solution to the well. A Luminescensor (manufactured by ATTO Corporation) was used for the measurements. Measurements were repeated 3 times for each luciferin concentration.
as §1, with “peak intensity” for “peak intensities”, “value was” for “value were”, “to luciferin” for “to ATP”, “S, defining the” for “S, with an”, “rate as” for “rate”, “Km values.” for “Km value.”

[5] = test system: E. coli JM109 (DE3) strain; test: Temperature dependency of luminescence intensity: E. coli colonies heat treated at 55° C., CCD image (Example 7); assay type: cell-based, Escherichia coli; details: 55° C. for 1 hour, 0.5 mM D-luciferin spray
Procedure: Each of the wild type luciferase gene and two kinds of the mutant gene obtained in the Example 6 was introduced into pRSET-B vector and transformed to E. coli JM109 (DE3) strain to form a colony. Thus-obtained colony was cultured and applied on a LB agar medium to form again the colony for 24 hours. After that, it was subjected to the heat treatment at 55° C. for 1 hour and kept at room temperature for 1 hour. It was then sprayed with a liquid containing 0.5 mM D-luciferin and a photographic image thereof was taken for 1 min by using a CCD camera (trade name: DP70, manufactured by Olympus Corporation).

Molecule	luminescence intensity, mean value (divided by Renilla luciferase intensity) (HeLa cells; 2 mM D-luciferin, 90 min)	luminescence intensity in comparison to luciferase derived from L. biplagiata having the literature sequence (HeLa cells) [times]	luminescence intensity in comparison to mutant luciferase M249K (HeLa cells) [times]	pH environment giving the highest luminescence intensity [1] [pH]	Km [2] [µM]	stability against protein degradation (bands on stained SDS-PAGE gel) [3]	luminescence intensity (divided by luminescence intensity of Renilla luciferase internal control) (HeLa cell)	Km [4] [µM]	light emission compared to the wild type luciferase at 55° C. [5]
B1	3.48	≥ 29	≥ 34.8	8	47.6	no other band was identified; also recorded: hardly degraded; also recorded: no degradation occurred	7.3	16	–
B2	–	–	–	8.0	–	–	–	–	stronger light emission; also recorded: higher luminescence intensity
